{"source": "patent US11407819B2", "about": "“Compositions and use of a fibrinogen binding motif present in EFB and COA for therapeutics and vaccines against Staphylococcus aureus” (priority 2013, dated 2022)", "target": "T1, rCoa-C binding to Fg (Homo sapiens, UniProt P02671+P02675+P02679)", "T1 construct": "full-length human Fibrinogen (diluted in PBS, Enzyme research); purchased Enzyme research; host or cells: Coa probe made in E. coli BL21", "T1 sequence (P02671 20-629 limits assumed)": "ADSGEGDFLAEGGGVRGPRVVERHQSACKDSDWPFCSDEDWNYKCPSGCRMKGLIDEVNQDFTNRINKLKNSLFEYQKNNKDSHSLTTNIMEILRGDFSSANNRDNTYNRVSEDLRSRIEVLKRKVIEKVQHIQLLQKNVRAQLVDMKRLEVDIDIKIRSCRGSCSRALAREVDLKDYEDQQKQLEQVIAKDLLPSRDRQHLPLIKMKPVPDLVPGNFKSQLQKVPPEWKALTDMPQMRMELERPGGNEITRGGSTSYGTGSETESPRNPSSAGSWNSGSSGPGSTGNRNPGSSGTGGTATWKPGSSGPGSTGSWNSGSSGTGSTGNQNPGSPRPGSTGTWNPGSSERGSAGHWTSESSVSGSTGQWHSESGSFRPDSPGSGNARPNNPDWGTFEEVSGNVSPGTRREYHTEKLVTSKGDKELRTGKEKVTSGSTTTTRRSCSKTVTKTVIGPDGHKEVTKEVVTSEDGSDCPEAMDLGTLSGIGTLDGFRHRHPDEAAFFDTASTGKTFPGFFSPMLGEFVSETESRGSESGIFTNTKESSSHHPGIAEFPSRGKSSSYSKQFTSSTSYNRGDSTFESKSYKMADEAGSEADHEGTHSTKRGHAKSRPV", "T1 sequence (P02675 31-491)": "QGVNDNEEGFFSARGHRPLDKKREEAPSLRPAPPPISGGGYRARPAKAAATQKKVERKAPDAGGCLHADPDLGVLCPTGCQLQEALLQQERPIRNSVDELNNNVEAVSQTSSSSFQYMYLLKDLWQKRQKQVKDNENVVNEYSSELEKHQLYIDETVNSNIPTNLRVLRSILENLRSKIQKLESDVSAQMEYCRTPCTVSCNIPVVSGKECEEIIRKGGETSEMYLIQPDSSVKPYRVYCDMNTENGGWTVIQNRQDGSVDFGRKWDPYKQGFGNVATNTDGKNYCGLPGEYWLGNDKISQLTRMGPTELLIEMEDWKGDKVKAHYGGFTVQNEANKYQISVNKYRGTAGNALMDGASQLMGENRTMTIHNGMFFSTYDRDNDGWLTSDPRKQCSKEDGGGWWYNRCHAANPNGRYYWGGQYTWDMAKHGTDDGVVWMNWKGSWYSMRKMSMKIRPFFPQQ", "T1 sequence (P02679 27-453)": "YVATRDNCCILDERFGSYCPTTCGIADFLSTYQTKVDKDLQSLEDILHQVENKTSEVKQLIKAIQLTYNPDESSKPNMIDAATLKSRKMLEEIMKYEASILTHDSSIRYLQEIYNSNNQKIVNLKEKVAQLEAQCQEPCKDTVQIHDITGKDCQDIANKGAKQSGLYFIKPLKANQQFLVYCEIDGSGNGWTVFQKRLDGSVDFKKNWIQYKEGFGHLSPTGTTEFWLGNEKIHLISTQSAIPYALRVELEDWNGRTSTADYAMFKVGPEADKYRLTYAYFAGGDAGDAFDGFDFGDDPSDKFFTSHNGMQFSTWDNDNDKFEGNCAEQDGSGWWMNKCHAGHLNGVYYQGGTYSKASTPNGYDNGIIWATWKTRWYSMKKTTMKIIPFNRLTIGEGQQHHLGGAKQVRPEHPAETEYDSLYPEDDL", "assay": "Competition ELISA, peptide inhibition of rCoa-C (Coa 311-636) binding to Fg", "conditions": "increasing concentrations of peptides; 4 nM GST fusion protein", "description": "The residues in Coa-RI important for fibrinogen binding. FIG. 12A is a panel of coa-RI variant peptides were synthesized where each residue in the sequence is individually replaced with Ala (or Ser when the native a.a. is Ala). […] Wells were coated with 0.25 μg/well Fg. Labels -1, -2, -3, -4, -5, -6, -7, -8, -9, -10, -11, -12, -13, -14, -15, -16, -17, -18, -19, -20, -21, -22, -23, -24, -25, -26, -27 refer to Coa-RI-1, Coa-RI-2, Coa-RI-3, Coa-RI-4, Coa-RI-5, Coa-RI-6, Coa-RI-7, Coa-RI-8, Coa-RI-9, Coa-RI-10, Coa-RI-11, Coa-RI-12, Coa-RI-13, Coa-RI-14, Coa-RI-15, Coa-RI-16, Coa-RI-17, Coa-RI-18, Coa-RI-19, Coa-RI-20, Coa-RI-21, Coa-RI-22, Coa-RI-23, Coa-RI-24, Coa-RI-25, Coa-RI-26, Coa-RI-27, respectively. FIG. 12C is a comparison of amino acid sequence of Efb-O with Coa-RI. FIG. 12D is a Fg-binding register of tandem repeats in Coa. Bold letters denote the residues that are important for Fg binding. Binding of a fixed concentration of rCoa-C (2 nM) to immobilized Fg was determined in the presence of a fixed concentration of these peptides (50 uM) (FIG. 12B). […]\nFIG. 13A is a schematic presentation of Coa peptides. […] The Fg binding activities of these peptides were then investigated in a competition ELISA where the binding of rCoa-C to Fg coated microtiter wells were determined in the presence of increasing concentrations of peptide (FIG. 13B). […]", "note": "Entries after “also recorded” stand apart in the source; their conditions may differ.", "data": [{"substance": "sCoa-RI: synthetic peptide, first 27 residues of repeat region, Coa 506-532 (ETNAYNVTTHANGQVSYGARPTYKKPS)", "values": [{"measurement": "inhibition of rCoa-C binding to fibrinogen by overlapping Coa R peptides", "result": "some inhibitory activity; also recorded: most potent inhibitor"}]}]}
